These results are taken from US20220153864A1 (Pieris, published 2022).

Assay [1] concerns the target T1, human CD137 expressed on cells (Flp-In-CHO::huCD137; NFkB-luc2/CD137 Jurkat cells) (human, UniProt Q07011 24-255).
T1 construct: whole, on cells; also called human CD137-expressing cells
Nature of the assay: flow cytometry on Flp-In-CHO::huCD137 cells, anti-human IgG detection. As to the method:
For flow cytometric analysis, respective cell lines were incubated with an exemplary fusion protein (SEQ ID NOs: 87 and 82), the GPC3 antibody or the CD137 specific lipocalin mutein (Fc fusion) as included in the fusion protein (SEQ ID NOs: 81 and 82 and SEQ ID NO: 98, respectively), a reference CD137 antibody SEQ ID NOs: 26 and 27, or an isotype control (SEQ ID NOs: 24 and 25) and detected using a fluorescently labeled anti-human IgG antibody in FACS analysis as described in the following:
5×10⁴ cells per well were incubated for 1 h in ice-cold PBS containing 5% fetal calf serum (PBS-FCS). A dilution series of the testing molecule were added to the cells and incubated for 1 h on ice. Cells were washed twice with PBS and then incubated with a goat anti-hlgG Alexa647-labeled antibody or goat anti-hlgG Alexa488-labeled antibody for 30 min on ice. Cells were subsequently washed and analyzed using iQue Flow cytometer (Intellicyte Screener). Mean geometric fluorescent signals were plotted and fitted with Graphpad software. The geometric means of the fluorescence intensity were used to calculate EC₅₀ values using a four-parameter logistic regression with bottom fixed to background.
Background: A flow cytometer gives signals particle by particle.

Assay [2] deals with T2, recombinant human GPC3 (huGPC3) (R&D Systems) (human, UniProt P51654 25-559).
T2 construct: also called biotinylated huGPC3
T2 sequence (P51654 25-559 limits assumed): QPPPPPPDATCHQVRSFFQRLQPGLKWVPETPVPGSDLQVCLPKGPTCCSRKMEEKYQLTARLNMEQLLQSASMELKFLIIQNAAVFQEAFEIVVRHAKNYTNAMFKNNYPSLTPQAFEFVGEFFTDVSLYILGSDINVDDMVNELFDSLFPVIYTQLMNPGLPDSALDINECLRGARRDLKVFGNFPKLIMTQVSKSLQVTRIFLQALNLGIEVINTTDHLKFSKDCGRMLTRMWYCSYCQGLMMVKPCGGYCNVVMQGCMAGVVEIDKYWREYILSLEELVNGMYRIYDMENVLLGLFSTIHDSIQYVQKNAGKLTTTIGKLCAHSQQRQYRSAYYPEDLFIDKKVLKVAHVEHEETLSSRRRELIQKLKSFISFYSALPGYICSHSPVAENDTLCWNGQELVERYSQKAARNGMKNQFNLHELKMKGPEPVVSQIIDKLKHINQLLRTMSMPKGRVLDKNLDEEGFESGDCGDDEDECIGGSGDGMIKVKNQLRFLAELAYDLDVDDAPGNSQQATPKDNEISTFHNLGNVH
Nature of the assay: dual-binding ELISA: huGPC3 coated, fusion titrated, detection with biotinylated huCD137-His. As to the method:
(§1) Recombinant huCD137-His (R&D Systems) in PBS (1 μg/mL) was coated overnight on microtiter plates at 4° C. The plates were washed five times after each incubation step with 100 μL PBS-0.05% T. The plates were blocked with PBS-0.1% T-2% BSA for 1 h at room temperature and subsequently washed again. Different concentrations of tested fusion proteins were added to the wells and incubated for 1 h at room temperature, followed by a wash step. Subsequently, biotinylated huGPC3 was added at a constant concentration of 1 μg/mL in PBS-0.1% T-2% BSA for 1 h. After washing, a 1:5000 dilution of ExtrAvidin-HRP (Sigma-Aldrich) in PBS-0.1% T-2% BSA was added to the wells and incubated for 1 h. After an additional wash step, fluorogenic HRP substrate (QuantaBlu, Thermo) was added to each well, and the fluorescence intensity was detected using a fluorescence microplate reader.
The dual binding of fusion proteins was also tested with a reverse set-up where recombinant huGPC3 (R&D Systems) was coated on microtiter plates at 1 μg/ml and the bound fusion proteins were detected via the addition of 5 μg/mL biotinylated huCD137-His.
(§2) Exemplary dual binding data are shown in FIG. 3, together with the fit curves resulting from a 1:1 sigmoidal binding fit, where the EC₅₀ value and the maximum signal were free parameters, and the slope was fixed to unity.
For orientation: In an ELISA, binding on a coated surface is turned into a signal by an enzyme label.

In assay [3] the target is T3, huCD137-His (recombinant human CD137 with C-terminal polyhistidine tag, R&D Systems) (human, UniProt Q07011 24-186).
T3 construct: also called biotinylated huCD137-His; not shown: C-terminal polyhistidine tag
Kind of assay: dual-binding ELISA: huCD137-His coated, fusion titrated, detection with biotinylated huGPC3. As to the method: as §1, §2

In assay [4] the target is recombinant cynomolgus GPC3 (cyGPC3) (R&D Systems) (cynomolgus, UniProt A0A2K5VK50 24-558). Nature of the assay: SPR (Biacore T200), binder captured by anti-human IgG Fc, cyGPC3 as analyte, 1:1 model. As to the method: The anti-human IgG Fc antibody (GE Healthcare) was immobilized on a CM5 sensor chip using standard amine chemistry: the carboxyl groups on the chip were activated using 1-ethyl-3-(3-dimethylaminopropyl)-carbodiimide (EDC) and N-hydroxysuccinimide (NHS). Subsequently, anti-human IgG Fc antibody solution (GE Healthcare) at a concentration of 25 μg/mL in 10 mM sodium acetate (pH 5.0) was applied at a flow rate of 5 μL/min until an immobilization level of 6000-10000 resonance units (RU) was achieved. Residual non-reacted NHS-esters were blocked by passing a solution of 1M ethanolamine across the surface. The reference channel was treated in an analogous manner. Subsequently, testing fusion proteins (SEQ ID NOs: 87 and 82 and CD137Ac1-Fusion 1) or the GPC3 antibody as included in the fusion protein (SEQ ID NOs: 81 and 82) at 0.2 μg/ml in HBS-EP+ buffer was captured by the anti-human IgG-Fc antibody at the chip surface for 180 s at a flow rate of 10 μL/min. After each capture step, the needle was washed.
The binding assay was carried out with a contact time of 180 s, a dissociation time of 900 s, and a flow rate of 30 μL/min. After each injection, the needle was cleaned with 40 mM NaOH+20% isopropanol. All measurements were performed at 25° C. […] Prior to the protein measurements, three startup cycles were performed for conditioning purposes. Data were evaluated with Biacore T200 Evaluation software (v2.0). Double referencing was used and the 1:1 binding model was used to fit the raw data.

The target of assay [5] is T2, recombinant human GPC3 (huGPC3) (R&D …). Nature of the assay: ELISA, huGPC3 coated, detection anti-human IgG Fc-HRP. As to the method: Recombinant huGPC3 (R&D Systems) at the concentration of 1 μg/mL in PBS was coated overnight on microtiter plates at 4° C. After five washes with 100 μL PBS-0.05% T (PBS supplemented with 0.05% (v/v) Tween 20), the plates were blocked with 2% BSA (w/v) in PBS-0.1% T (PBS-0.1% T-2% BSA) for 1 h at room temperature. After washing with 100 μL PBS-0.05% T (PBS supplemented with 0.05% (v/v) Tween 20) five times, exemplary fusion proteins (SEQ ID NOs: 87 and […] and CD137Ac1-Fusion 1 to 7) or the GPC3 antibody as include in the fusion proteins (SEQ ID NOs: 81 and 82) at different concentrations were added to the wells and incubated for 1 h at room temperature, followed by another wash step. Bound molecules under study were detected by incubation with 1:5000 diluted anti-human IgG Fc-HRP (Jackson Laboratory) in PBS-0.1% T-2% BSA. After an additional wash step, fluorogenic HRP substrate (QuantaBlu, Thermo) was added to each well and the fluorescence intensity was detected using a fluorescence microplate reader.
Exemplary results are depicted in FIG. 2A-2D, together with the fit curves resulting from a 1:1 binding sigmoidal fit, where the EC₅₀ value and the maximum signal were free parameters, and the slope was fixed to unity.

T1 sequence (Q07011 24-255): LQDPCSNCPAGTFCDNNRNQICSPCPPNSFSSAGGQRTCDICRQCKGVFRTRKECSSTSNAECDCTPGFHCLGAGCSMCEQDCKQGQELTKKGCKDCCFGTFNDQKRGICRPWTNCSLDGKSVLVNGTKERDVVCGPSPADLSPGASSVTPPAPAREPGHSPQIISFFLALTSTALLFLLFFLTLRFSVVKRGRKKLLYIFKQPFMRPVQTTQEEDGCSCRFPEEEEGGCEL

B1: fusion protein SEQ ID NOs: 87 and 82 (bispecific antibody, human IgG4 S228P, kappa, F234A L235A)
heavy: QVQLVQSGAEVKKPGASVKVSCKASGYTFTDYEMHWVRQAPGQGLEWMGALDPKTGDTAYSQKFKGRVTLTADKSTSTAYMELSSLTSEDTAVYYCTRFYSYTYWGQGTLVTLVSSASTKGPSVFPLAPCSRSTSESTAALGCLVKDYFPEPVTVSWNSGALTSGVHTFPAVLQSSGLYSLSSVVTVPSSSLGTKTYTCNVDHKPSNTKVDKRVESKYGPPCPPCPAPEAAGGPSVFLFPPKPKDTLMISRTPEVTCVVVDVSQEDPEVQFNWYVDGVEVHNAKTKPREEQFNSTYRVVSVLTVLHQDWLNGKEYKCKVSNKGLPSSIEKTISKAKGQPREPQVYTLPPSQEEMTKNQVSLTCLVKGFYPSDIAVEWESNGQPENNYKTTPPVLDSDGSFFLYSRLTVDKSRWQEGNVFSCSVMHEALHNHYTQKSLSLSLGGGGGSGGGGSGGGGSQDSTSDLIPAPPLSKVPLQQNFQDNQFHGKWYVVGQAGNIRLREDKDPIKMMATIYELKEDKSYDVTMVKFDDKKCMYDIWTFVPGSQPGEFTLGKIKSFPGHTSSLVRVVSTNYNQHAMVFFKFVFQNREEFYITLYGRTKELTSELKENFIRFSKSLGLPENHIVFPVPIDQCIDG
light: DVVMTQSPLSLPVTPGEPASISCRSSQSLVHSNRNTYLHWYLQKPGQSPQLLIYKVSNRFSGVPDRFSGSGSGTDFTLKISRVEAEDVGVYYCSQNTHVPPTFGQGTKLEIKRTVAAPSVFIFPPSDEQLKSGTASVVCLLNNFYPREAKVQWKVDNALQSGNSQESVTEQDSKDSTYSLSSTLTLSKADYEKHKVYACEVTHQGLSSPVTKSFNRGEC
notes: also called exemplary fusion protein
One may read the EC50 as the concentration that produces a half-maximal response. Usually Kd stands for a measure of binding affinity in units of concentration. Broadly, the koff is the first-order rate constant of dissociation. Broadly, the kon is the second-order rate constant of association. Regarding B1, the EC50 in assay [1] came out at 13.1 nM; in assay [2], 0.98 nM; in assay [3] it was 4.2 nM; in assay [5], 0.19 nM. The Kd in assay [4] is 0.936 nM. The koff in assay [4] was found to be 0.000275 s⁻¹. Besides, the kon in assay [4] worked out at 293000 M⁻¹ s⁻¹.
